Test results as given in publication PMC5758883, “Analysis of the natively unstructured RNA/protein-recognition core in the Escherichia coli RNA degradosome and its interactions with regulatory RNA/Hfq complexes” (Nucleic Acids Research, 2017).

T1: RNase E 603–850 with a C-terminal hexahistidine tag (Escherichia coli, UniProt P21513 603-850)
T1 construct: also called Rne; source: E. coli BL21 (DE3), co-expressed with RhlB (pRSFDuet-1) with or without enolase (pET11-a); alone: RhlB and enolase removed on the column with 8 M urea; not shown: His6, C-terminal, kept
T1 sequence (looked up): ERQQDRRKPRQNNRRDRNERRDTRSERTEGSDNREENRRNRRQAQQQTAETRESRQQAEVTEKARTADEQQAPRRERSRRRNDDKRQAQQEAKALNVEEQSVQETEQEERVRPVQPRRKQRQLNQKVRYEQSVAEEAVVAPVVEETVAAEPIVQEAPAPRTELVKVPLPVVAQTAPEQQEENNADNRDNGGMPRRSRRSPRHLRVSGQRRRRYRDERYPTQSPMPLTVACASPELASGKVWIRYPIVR

B1: enolase (enzyme, Escherichia coli)
chain: MSKIVKIIGREIIDSRGNPTVEAEVHLEGGFVGMAAAPSGASTGSREALELRDGDKSRFLGKGVTKAVAAVNGPIAQALIGKDAKDQAGIDKIMIDLDGTENKSKFGANAILAVSLANAKAAAAAKGMPLYEHIAELNGTPGKYSMPVPMMNIINGGEHADNNVDIQEFMIQPVGAKTVKEAIRMGSEVFHHLAKVLKAKGMNTAVGDEGGYAPNLGSNAEALAVIAEAVKAAGYELGKDITLAMDCAASEFYKDGKYVLAGEGNKAFTSEEFTHFLEELTKQYPIVSIEDGLDESDWDGFAYQTKVLGDKIQLVGDDLFVTNTKILKEGIEKGIANSILIKFNQIGSLTETLAAIKMAKDAGYTAVISHRSGETEDATIADLAVGTAAGQIKTGSMSRSDRVAKYNQLIRIEEALGEKAPYNGRKEIKGQA
notes: E. coli enolase; No tag is named for enolase in either construct; also called glycolytic enzyme enolase; enolase dimer; source: E. coli Rosetta (DE3), pETDuet, co-expressed and co-purified with His6-AR2–EBS
B2: DEAD-box helicase RhlB (enzyme, Escherichia coli, UniProt P0A8J8 1-421, looked up)
chain: MSKTHLTEQKFSDFALHPKVVEALEKKGFHNCTPIQALALPLTLAGRDVAGQAQTGTGKTMAFLTSTFHYLLSHPAIADRKVNQPRALIMAPTRELAVQIHADAEPLAEATGLKLGLAYGGDGYDKQLKVLESGVDILIGTTGRLIDYAKQNHINLGAIQVVVLDEADRMYDLGFIKDIRWLFRRMPPANQRLNMLFSATLSYRVRELAFEQMNNAEYIEVEPEQKTGHRIKEELFYPSNEEKMRLLQTLIEEEWPDRAIIFANTKHRCEEIWGHLAADGHRVGLLTGDVAQKKRLRILDEFTRGDLDILVATDVAARGLHIPAVTHVFNYDLPDDCEDYVHRIGRTGRAGASGHSISLACEEYALNLPAIETYIGHSIPVSKYNPDALMTDLPKPLRLTRPRTGNGPRRTGAPRNRRRSG
notes: E. coli DEAD-box helicase RhlB; HDX-MS covers both RecA-like domains and the tail 400–421, so probably the whole protein; also called RhIB

Legend:
[1] = target: T1, RNase E 603–850 with a C-terminal …; assay: SEC-MALS; co-expressed, co-purified ternary and binary complexes loaded at 5.6 and 4.0 mg/ml on Superdex 200 10/300; 50 mM Tris–HCl pH 7.5, 100 mM NaCl, 50 mM KCl, 5 mM MgCl2, 2 mM DTT; conditions: both partners purified
[2] = target: the molecule itself; assay: native MS; native ESI and ion-mobility mass spectrometry of the co-purified ternary and binary complexes

Binder | stoichiometry N [1] | stoichiometry N [2]
B1 | 2 | 2
B2 | 1 | –
